Residue numbers refer to the chain shown, from its start.
Key:
Test in all cases: EMSA
[1] = molecular target: T1, CbbR G98R (Ralstonia eutropha) (UniProt P42722); details: fold change in affinity with 400 uM PEP vs no metabolite; RuBP 1.2, ATP 0.99
T1 sequence: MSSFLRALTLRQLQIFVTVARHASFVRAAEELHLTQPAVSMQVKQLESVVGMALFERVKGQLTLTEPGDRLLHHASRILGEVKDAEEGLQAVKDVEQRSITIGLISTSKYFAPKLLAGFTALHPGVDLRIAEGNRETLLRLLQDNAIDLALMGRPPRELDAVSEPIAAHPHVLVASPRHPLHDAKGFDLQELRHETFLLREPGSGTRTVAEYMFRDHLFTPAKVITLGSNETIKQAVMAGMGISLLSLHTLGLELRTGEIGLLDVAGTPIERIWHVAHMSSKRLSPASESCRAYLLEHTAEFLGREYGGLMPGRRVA

[2] = molecular target: T2, CbbR R135C R135C (Ralstonia eutropha) (UniProt P42722); details: fold change in affinity with 400 uM PEP vs no metabolite; RuBP 0.59, ATP 1.3
T2 sequence: T1 sequence with R98G, R135C

[3] = molecular target: T3, CbbR R154H R154H (Ralstonia eutropha) (UniProt P42722); details: fold change in affinity with 400 uM PEP vs no metabolite; RuBP 0.68, ATP 1.2
T3 sequence: T1 sequence with R98G, R154H

[4] = molecular target: T4, CbbR R272Q (Ralstonia eutropha) (UniProt P42722); details: fold change in affinity with 400 uM PEP vs no metabolite; RuBP 0.76, ATP 1.4; printed R272O in table
T4 sequence: T1 sequence with R98G, R272Q

[5] = molecular target: T5, CbbR wild type (Ralstonia eutropha) (UniProt P42722); details: fold change in affinity with 400 uM PEP vs no metabolite; RuBP 2.3, ATP 3.2, NADPH 1.5, RU5P 0.91, FBP 0.96
T5 sequence: T1 sequence with R98G

cbb promoter probe, 246 bp chromosomal
binding signal [1]: 2.7 fold | binding signal [2]: 0.97 fold | binding signal [3]: 1.3 fold | binding signal [4]: 0.85 fold | binding signal [5]: 3.8 fold

From patent publication US20140087436
